{
  "source": "paper PMC8250900",
  "binders": {"B1": {"name": "RBD4 (ssDNA)", "DNA": "GGGAGAGGAGGGAGATAGATATCAATGGGTGGGAGGGAGGGGGGCTTTATTCCGGTGTTTTTTCGTTTCGTGGATGCCACAGGAC"}, "B2": {"name": "SP7 (ssDNA)", "DNA": "GGGAGAGGAGGGAGATAGATATCAAAGGAGGGTAGGTAGTGCTTGGTAGGGAAACTCCGCCGATTTTTCGTGGATGCCACAGGAC"}, "B3": {"name": "RBD3 (ssDNA)", "DNA": "GGGAGAGGAGGGAGATAGATATCAATGGGTGTTTTGGTTGTAGGGTTTAGGTTTAGGGTACTCTTTTTCGTGGATGCCACAGGAC"}, "B4": {"name": "RBD1 (ssDNA)", "DNA": "GGGAGAGGAGGGAGATAGATATCAAGTTAGGTTCTGGATTAGGTTAGGGTTGTGTTGTTGTTAGGTTTCGTGGATGCCACAGGAC"}, "B5": {"name": "RBD2 (ssDNA)", "DNA": "GGGAGAGGAGGGAGATAGATATCAATACAGTTGGTTGTAGGTTTTTGTTAGGTTAGTTTAGGGTTTTTCGTGGATGCCACAGGAC"}, "B6": {"name": "SP6 (ssDNA)", "DNA": "GGGAGAGGAGGGAGATAGATATCAACCCATGGTAGGTATTGCTTGGTAGGGATAGTGGGCTTGATGTTTCGTGGATGCCACAGGAC"}, "B7": {"name": "SP6 biotin (ssDNA)", "DNA": "B6 DNA"}, "B8": {"name": "SP5 (ssDNA)", "DNA": "GGGAGAGGAGGGAGATAGATATCAACCATGGTAGGTATTGCTTGGTAGGGATAGTGGGCTTGATGTTTCGTGGATGCCACAGGAC"}},
  "key": {"SARS-CoV-2 spike RBD": {"target": "SARS-CoV-2 spike RBD (SARS-CoV-2, UniProt P0DTC2 319-591)", "test": "flow cytometry"}, "[1]": {"target": "T1, SARS-CoV spike extracellular domain (CoV-S) (SARS-CoV, UniProt P59594 14-1190)", "test": "flow cytometry"}, "[2]": {"target": "T2, ACE2 extracellular domain (human, UniProt Q9BYF1 19-615)", "T2 sequence (Q9BYF1 19-615)": "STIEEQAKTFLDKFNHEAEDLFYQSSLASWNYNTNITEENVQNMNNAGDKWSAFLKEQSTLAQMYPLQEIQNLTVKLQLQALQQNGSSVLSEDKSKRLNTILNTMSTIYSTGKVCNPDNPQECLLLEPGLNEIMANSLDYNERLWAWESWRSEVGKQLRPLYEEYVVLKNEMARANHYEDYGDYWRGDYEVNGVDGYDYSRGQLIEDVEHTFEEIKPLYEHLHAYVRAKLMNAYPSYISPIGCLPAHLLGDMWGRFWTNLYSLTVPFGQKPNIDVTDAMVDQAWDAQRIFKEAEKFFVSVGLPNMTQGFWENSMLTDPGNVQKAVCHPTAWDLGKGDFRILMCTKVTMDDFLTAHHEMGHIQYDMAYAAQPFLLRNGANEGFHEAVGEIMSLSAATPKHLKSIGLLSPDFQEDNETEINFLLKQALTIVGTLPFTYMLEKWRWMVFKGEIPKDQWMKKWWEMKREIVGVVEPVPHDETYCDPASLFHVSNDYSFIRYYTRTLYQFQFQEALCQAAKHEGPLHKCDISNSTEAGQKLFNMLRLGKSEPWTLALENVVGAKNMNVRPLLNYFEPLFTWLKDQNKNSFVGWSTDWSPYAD", "test": "flow cytometry"}, "[3]": {"target": "T2, ACE2 extracellular domain", "test": "pull-down"}, "Nek7": {"target": "Nek7 (human, UniProt Q8TDX7 1-302)", "sequence (Q8TDX7 whole entry)": "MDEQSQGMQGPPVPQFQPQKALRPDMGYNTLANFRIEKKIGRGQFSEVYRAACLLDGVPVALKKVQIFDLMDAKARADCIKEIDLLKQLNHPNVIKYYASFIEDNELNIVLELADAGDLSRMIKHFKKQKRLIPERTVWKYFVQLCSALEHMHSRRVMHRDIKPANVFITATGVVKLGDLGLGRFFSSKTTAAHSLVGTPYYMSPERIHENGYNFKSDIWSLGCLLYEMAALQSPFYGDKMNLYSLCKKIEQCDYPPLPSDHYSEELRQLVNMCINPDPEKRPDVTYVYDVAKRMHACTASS", "test": "pull-down"}, "[4]": {"target": "T1, SARS-CoV spike extracellular domain …", "test": "pull-down"}},
  "data": [
    {"binder": "B1", "values": [
      {"measurement": "binding result", "setting": "SARS-CoV-2 spike RBD", "result": "binds"}
    ]},
    {"binder": "B2", "values": [
      {"measurement": "binding result", "setting": "SARS-CoV-2 spike RBD", "result": "no binding"},
      {"measurement": "binding result", "setting": "[1]", "result": "no binding"},
      {"measurement": "binding result", "setting": "[2]", "result": "no binding"}
    ]},
    {"binder": "B3", "values": [
      {"measurement": "binding result", "setting": "SARS-CoV-2 spike RBD", "result": "binds"}
    ]},
    {"binder": "B4", "values": [
      {"measurement": "binding result", "setting": "SARS-CoV-2 spike RBD", "result": "binds"}
    ]},
    {"binder": "B5", "values": [
      {"measurement": "binding result", "setting": "SARS-CoV-2 spike RBD", "result": "binds"}
    ]},
    {"binder": "B6", "values": [
      {"measurement": "binding result", "setting": "SARS-CoV-2 spike RBD", "result": "no binding"},
      {"measurement": "binding result", "setting": "[1]", "result": "no binding"},
      {"measurement": "binding result", "setting": "[2]", "result": "no binding"}
    ]},
    {"binder": "B7", "values": [
      {"measurement": "binding result", "setting": "[3]", "result": "no binding"},
      {"measurement": "binding result", "setting": "Nek7", "result": "no binding"},
      {"measurement": "binding result", "setting": "[4]", "result": "no binding"}
    ]},
    {"binder": "B8", "values": [
      {"measurement": "binding result", "setting": "SARS-CoV-2 spike RBD", "result": "no binding"},
      {"measurement": "binding result", "setting": "[1]", "result": "no binding"},
      {"measurement": "binding result", "setting": "[2]", "result": "no binding"}
    ]}
  ]
}
